This note sets out measurements from the nanobody polyreactivity screen of Harvey et al. (2022).

The nature of the data set: yeast display, Sf9 membrane polyspecificity reagent, FACS + sequencing; frameworks hold sequencing errors. Summed up: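 Nanobodies from a synthetic yeast display library (Saccharomyces cerevisiae BJ5465), induced 36–48 hours with galactose, were stained 1 hour at 4 °C with 10% biotinylated, detergent-solubilized Sf9 membrane reagent, enriched on streptavidin microbeads, then FACS-sorted. Anti-HA (expression) and streptavidin (reagent binding) fluorescence set low and high (top ~1%) gates. Polyreactivity labels come from the gate of origin. Genes were colony-PCR amplified, MiSeq 2 × 250 sequenced and filtered by CDR length.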
In the case of “QVHLVESGGGLVQAGGSLRLSCAASGRTFIKYAMGWYIQAPGKERELVAAISVSGGRTYYADSVKGRFTISRDKAKNTVYLQMNSLKPEDTAVYYCNKVRVGSLRGYWGQGTQVTVSS”, the “polyreactivity (PSR sort gate)” value was “high polyreactivity”.
Next, “QDQLVESGGGLVQAGGSLRLSCAASGSIFSTNAMGWYRQAPGKERELVAAITYSGSRTYYADSVKGRFTISRDTAKNTVFLQMNSLKPEDTAVYYCAADTSWYSWWFDYWGQGTQVTVSS”: “low polyreactivity”; “QVQLVESGGGLVQAGGSLRLSCAASGLTFRYNAMGWYRQAPGKERELVARISRNGGRTYYADSVKGRFTISRDNAKNTVYLQMNSLKPEDTAVYYCNVVYFVTTSPCYDYWGQGTQVTVSS”: “high polyreactivity”; “QVQLVESGGGLVQAGGSLRLSCAASGSTFVGNAMGCYRQAPVKERELVATISNSGGHTFYADSVKGRFTISRDNAKNTVYLQMNSLKPEDTAVFYCAASTSGAIRRDGYWGQGTQVTVSS”: “low polyreactivity”.
Next, “QVQLVESGGGLVQAGGSLRLSCAASGGIFFSYAMGWYRQAPGKERELVAAIRTNGGTTYYADSVKGRFTISRDNAKNTVYLQMNSLKPEDTAVYYCAALPGGYYDRGEYDYWGQGTQVSVSS”: “low polyreactivity”; “QVQLVESGGGLVQAGGSLRLSCAASGSILYFNAMGLYRQAPGKERELVATITSGGSTNYADSVKWRFTISRDNAKNTVYLQMNSQKPEDTAVYYSAADYSTRKADYWVQGTQVTVSS”: “low polyreactivity”.
The value for “QFQLVESGGGLVQAGGSLLLSCAASGRTFDWYAMGWYRLAPGKERELVAGISGSSGRTYYADSVKGRFTISRDNAKNTVYLQMNSLKPEDTAVYYCAADFSFWKLVYYQSGRYDYWGQGTQVTVSS” was “high polyreactivity”; that for “QVQLVESGGGLGQAGGSLRLSCAASGRTFYIYAMGWYRQAPGKERELVAANTWSTGGTYYADSVKGRFTISRDNAKNTVYLQMNSLKPEDTAVYYCAAGYDYKSTRHYYWGQGTQVTVSS” was “high polyreactivity”; that for “QVQLVESGAALVQAGGSLRISCAASGSTLDTNAMGRYRPAPGKERELVAAITFSGGTTYYADSVKGRFTISRDNAKNTVYLQMNSLKPEDTAVYYCAAEIWLEYVGYDYWGQGTQVTVSS” was “high polyreactivity”.
As to “QVQLVESGGGLVQAGGSLRLSCAASGRTIWWYAMGWYRQAPGKERELVAAITWIGGSTYYADSVKGRFTISRDNAKNTVYLQMNSLKPEDTAVYYCATDKDDVSDLGKDYAYFEYDYWGQGTQVTVSS”, the “polyreactivity (PSR sort gate)” value was “low polyreactivity”.
Turning to “QVQLVESGGGLLQAGGSLSLSCAASGSIFVTNAMGWYRQAPGKERELVAAISVSGGSTYYADSVKGRFTISRDNAKYTVYLQMNSLKPEDTAVYYCNTVRSPPGHDYWGQGTQVTLSS”, the “polyreactivity (PSR sort gate)” value is listed as “low polyreactivity”.
The value for “QVQLVESGGGLVQAGGSLRFRCAASGFTFGHYAIVWYRQAPGKERELVAAISKSGTRTYYADSVKGRFTISRDNAKNTVYLQMTSLKPEDTAVYYCATTAYNGYDYWGQGTQVTVSS” was “high polyreactivity”; that for “QVQLVESGGGLVQAGGSLRLSCAASGRTFARYAMGWYRQAPGKEREFVAGINWSGGGTYYADSVKGRFTISRDNAKNTVYLQMNSLKPEDTAVYYCASYTSVRPKLDYWGLGTQVTVSS” was “high polyreactivity”.
“QVQIVESGGVLVQAGGSLRLSCAASGFNYTNYAMGWYIQSPGKERELVAAITYSGGSKYYADSVKGRFTISRDIAKNTVYLQMNSLKPEDTAVFFCNKYPSFYGAGYYWGQGTQVTVSS”: the “polyreactivity (PSR sort gate)” value is recorded as “high polyreactivity”.
The value for “QVQLVESGGGLVQAGGSLRLSCAASGFTFGKNAMGWYRQAPGKERELVAAIDTGDRTNYADSVKGRFTISRDNAKNTVYLQMNSLKPEDTAVYYCATDVVFSSYDYWGQGTQVTVSS” was “low polyreactivity”.
Next, “QVHLVESGGGLVQAGGSLRLSCAASGITFRRYGMGWYRQAPGKERELVATITSSVGSRTYYADSVKGRFTISRDNAKNTVYLQMNSLKPEDTAVYYCAADHRVYDYEYWGQGTQVTVSS”: “low polyreactivity”; “QVQLVESGGGLVQAGGSLRLSCAASGFTFFSYTMGWYRQAPGKERELVAAISKRGSRTYYADSVKGRFTISRDNAKNTVYLQRNSLKPEDTAVYYCAADCGREVVLRREDYWGQGTQVTVSS”: “high polyreactivity”.
The value for “QVQLVESGGGLVQAGGSLRLSCAASGSTFSRYAMGWYRQAPGKERELVAAISSSGGSTYYADSVKGRFTISRDNAKNTVYLQMNSLKPEDTAVYYCAVAVNGVSRIKYYYWGQGTQVTVSS” was “high polyreactivity”.
Regarding “QVQLVESGGGLVQAGGSLRLSCAASGSIYDYNTMGWYRQAPGKERELVAAISASGGRTYYADSEKGRFTISRDNAKNTVYLQMNSLKPEDTAVYYCARYYIGYYERFGYDYWGQGTQVTVSS”, the “polyreactivity (PSR sort gate)” value is on record as “high polyreactivity”.
Regarding “QVQLVESGGGLVQAGGSLRLSCAASGRTFGLYDMGWYRQAPGKERELVAGITRRGGRTYYADSVKGRFTISRDNAKNTVYLQMNSLKPEDTAVYYCAVVTRYRYDYWGQGTQVTVSS”, the “polyreactivity (PSR sort gate)” value is on record as “high polyreactivity”.
The value for “QVQLVESGGGLVQAGGSLRLSCAASGFTFGRNAMGWYRQAPGKERELVARITTGGSTNYADSVKGRFTISRDNAKNTVYLQMNSLKPEDTAVYYCAATYRSLALFWTYGYWGQGTQVTVSS” was “low polyreactivity”; that for “QVQLVESGGGLVQAGGSLRLSCAASGFTFIQYDMGWYRLAPGKERELVAAISSSGGSTYYADSVKGRFTISRDNAKNTVYLQMNSLKPEDTAVYNCAADPWVRLEYDYWGQGTQVTVSS” was “low polyreactivity”.
Next, “QVQLVESGGGLVQAGGSLRLSCAASGSIFQYNAMGWYRQAPGKRELVAAINRSGGSTYYADSVKGRFTISRDYAKNTVYLQMNSLKPEDTAVYYCAAVRYDRARGSPYPDRVGVYSWGQGTQVTVSS”: “high polyreactivity”; “QEQLHESGGGLVQAGGSLRLSCAASRTISVTYNMGWYRQATGKEREFVAGNSTGDTTNYADSVKGRFTISRDNAKNTVYLQMNSLKPEDTAVNYCSAHIYRQDHFYYWGQGTQVTVSS”: “low polyreactivity”; “QVQLVESGGGLVQAGGSLRLSCAASGSTFRGNAMGWYRQAPGKERELVAAITGRGGRTYYADSVKGRFTISRDNAKNTVYLQMNSLKPEDTAVYYCAAYSRYKPYGITAYDYWGQGTQVNVSS”: “high polyreactivity”.
Turning to “QVQLVESGGGLVQAGGSLRISCAASGSIFYGYAMGWYRQAPGKERELVAAITWSGGSTYYADSVKGRFTISRDNAKNTVYLQMNSLNPEDTAVYFCNAVSTRFRVRTSDYWGQGTQVTVSS”, the “polyreactivity (PSR sort gate)” value is “high polyreactivity”.
The value for “QVQLVESGGGLVQAGGSLRLSCAASGITFYRYAMGWYRQAPGKERELVAAITWSGGSTYYADSVKGRFTISRDNAKNTVYLQMNSLKPEDTAVYYCAVDYTPEDWGDDYWGQGTQVTVSS” was “low polyreactivity”; that for “QVQLVESVGGLVQAGGSLRLSCAASGITFGRNTMGWYRQAPGKERELVAAISWNGDSTYYADSVKGRFTISRDNAKNTVYLQMNSLKPEDTAVYYCNADDVFLYQTDGLGDYWGQGTQVTVSS” was “low polyreactivity”.
The value for “QVQLVESGGGLVQAGGSLRLSCAASGIIFHFNDMGWYRLAPGKERELVAAITSGGSTNYADSVKGRFTISRDNAKKTVYLQMNSLKPEDTADYYCAARRGLRLFAYRHGYWGQGTQVTVSS” was “low polyreactivity”; that for “QVQLVESGGGVVQAGRSLRISCAASGSTFRGYAMGWYRQAPGKDRELVATISGSDGTTYYADSVKGRFTISRDYAKNTVYLQMNCLNPEDTAVFYCDAGESFEMYYWGQGSQVTVSS” was “low polyreactivity”.
The value for “QVQLVESGGGLVQAGGSLRLSCAASGSIFESYAMGLYRQAPGKERELVAALTSSGDSTYYADSVKGRFTISRDNAKNTVYLQMYSLNPEDTAVDYCAKRVPTYISTADWVSRYDYWGQGTQVTVSS” was “low polyreactivity”.
As for “QVQIVDSGGGLVQAGGSLRLSCAASGRTFNYYAKGWYRQAPGKERQLVAAISKSGGSTYYADSVKGRFTISRDNEKNTVYLQMNSLKPEETAVYYCAALTTHAPHSYNYWGQGTQVTVSS”, the “polyreactivity (PSR sort gate)” value is recorded as “low polyreactivity”.
In the case of “QVQLVESGGGLVQAGGSLRLSCAASGSIFKVNVMGWYRQAPGKERELVAAISRSGGNTYYADSVKGRFTISRDNAKNTVYLQMNSLKPEDTAVYYCATGASYLRRYDHPHSDVDYWGQGTQVTVSS”, the “polyreactivity (PSR sort gate)” value is on record as “low polyreactivity”.
For “QVHLVESGGGLVQAGGSLRLRCAASGIIYVRYAMGWYRHAPGKERELVAAISWSGGSTYYADSVKGRFTISRDNAKNTVYLQMNSLKPEDTAVYYCAADSHRTRGYARYFYWGQGTQVTVSS”, the “polyreactivity (PSR sort gate)” value is “high polyreactivity”.
The value for “QVQLVESGGGLVQAGGSLRLSCAASGFTFFINGMGWYRQAPGKERELVAAIRSSGASTYDADSVKGRFTISRDNAKNTVYLQMNSLQPEDTAVYYCAVPLGAVGGPVDYWGQGTQVTVSS” was “low polyreactivity”; that for “HVQLVESGGGLVQAGGSLRLSCAASGRIFGYYAIGWYRQATRKERELVAAITINGRRTYYADSVKGRFTISRDNAKNTVYLQMKSLKPEDTAVYLCTATSRYNRLGYWGQGTQVSVSS” was “high polyreactivity”.
The value for “QVQLVESGGGLVQAGGSLRLSCAASGSTFVRNAMGWYRQAPWKERELVAAIRWRSGSTYYADSVKGRFTISRDNAKNTVYLQMNSLKPEDPAVYYCAVDYNSFRYGPLGYWGQGTQVTVSS” was “high polyreactivity”; that for “QVHLVESGRGFVQAGGSLRLSCAASAFTFHSYAMGWYRQAPGKERELVASISSSGSTNYADSVKGRFTISRDNEKNTVYLQMISLKPEDTAVSYCAAESRYPFIYEYWGQVTQVTVSS” was “low polyreactivity”; that for “QVQLVESGGGLVQAGGSLRLSCAASGFTFYFYALGWYRQAPGKERELVATITIGGRTNYADSVKGRFTISRDNAKNTVYLQMNSLKPEDTAVYYCAAAYLWISRYSGYDYWGQGTQVTVSS” was “high polyreactivity”.
The value for “QVQLVESGGGLVQAGGSLRLSCAASGFTFWQYDMGWYRQAPGKERELVAAITSSGSRTYYADSVKGRFTISRDNAKNTVYLQMNSLKPEDTAVYYCNTYLRYWVSYSYDYWGQGTQVTVSS” was “high polyreactivity”; that for “QVQLVESGGGLVQAGGSLRLSCAASGFILYVNAMGWYRQAPGKERELVAGITSSGTSTYADSVKGRFTISRDNAKNTVYLQMNSLKPEDTAVYYCAALRRPYGARDYDYWGQGTQVTVSS” was “low polyreactivity”.
